The target of test [1] is concentrated crude leukocyte interferon alpha. Kind of test: pilot-scale immunoaffinity chromatography, crude interferon batch K-543, experiment P-429.
Test [2] has the same target. In words: immunoaffinity chromatography of crude leukocyte interferon alpha (Example 1).
Test [3] deals with T1, human interferon alpha 14 (human, UniProt P01570 24-189).
T1 construct: One entry serves both the natural leukocyte protein and the bought recombinant protein; also called α14; IFN-α14
In words: immunoaffinity column loaded with crude leukocyte interferon alpha; RP-HPLC of eluate.
Procedure: The antibodies were all bound to CNBr-activated Sepharose gel. […] Impurities and unbound material were removed from the column by washing with buffer. Interferon alpha was eluted with citric-acid buffer, pH2. Unbound, flow-through fractions, and eluate fractions were analysed for interferon alpha using a specific ELISA. The eluate fraction was analysed for its complement of interferon alpha proteins using reversed-phase HPLC (RP-HPLC). Interferon alpha specific activity was determined using a cytopathic protective effect assay with MDBK cells. All samples were analysed twice. The experiments were repeated with a second batch of concentrated crude leukocyte interferon alpha.
Rather, the interferon alpha protein pattern is compared to assess whether all the expected peaks are present.

In another test the target is T2, human interferon alpha 1 (human, UniProt P0DY56 24-189).
T2 construct: also called α1; IFN-α1
In words: immunoaffinity chromatography (Examples 1, 3, 4 and 5).

The target in test [4] is concentrated crude leukocyte interferon alpha. In words: pilot-scale immunoaffinity chromatography, crude interferon from lab fermenter, experiment P-434.
The target is the same in test [5]. In words: immunoaffinity chromatography, antibody on CNBr-Sepharose; interferon alpha ELISA of fractions; second row for this antibody.
Test [6] deals with T3, human interferon alpha 16 (human, UniProt P05015 24-189).
T3 construct: also called α16; IFN-α16
Kind of test: 3-A3-2 immunoaffinity column, 10,000 IU load; Daudi cell anti-proliferative assay of fractions.

In a further test the target is T4, human interferon alpha 5 (human, UniProt P01569 24-189, limits assumed).
T4 construct: also called α5; IFN-α5
Described as above.

Test [7] has as its target concentrated crude leukocyte interferon alpha. In words: immunoaffinity chromatography, antibody on CNBr-Sepharose; interferon alpha ELISA of fractions. A general note: In an ELISA, binding on a coated surface is turned into a signal by an enzyme label.
Test [8] has the same target. In words: capacity of immunoaffinity gel, 7 mg antibody/mL CNBr-activated Sepharose FF.

B1: Monoclonal antibody 3-A3-2 (antibody, mouse IgG1, V domains shown)
VH: QVQLQESGTVLARPGASVKMSCKASGYSFTTYWMHWVKQRPGQGLEWIGVIYPGNGDTTYNQKFKDKAKLTAVTSANTAYMELSSLTNEDSAVYFCTRNYKYDYYTMDYWGQGTTVTVSS
VL: DIVLTQSPASLAVSLGQRATISCRASKSVSTSGHSYMHWYQQKPGQTPKLLIYLASNLESGVPARFSGSGSGTDFTLNIHPVEEEDAATYYCQHSGELPFTFGSGTKLEIK
notes: Murine IgG1/kappa from hybridoma 3-A3-2 (ECACC 05030201); also called monoclonal 3-A3-2; 3A32 Ab
In the case of B1, the IFN-α eluate yield (%) in test [1] stood at 73%; in [4], 70%. For the same molecule, the results for the Flow-through (%) in test [2], in test [5] and in test [7] were less than 5%, 5% and 1%, respectively. Besides, the binding result (in test [3]; in the test with human interferon alpha 1; in test [6]; in the test with human interferon alpha 5) was “binds” in each case. For the same molecule, the figures for the eluate (IU) in test [5] and in [7] were 17 IU and 16.5 IU, respectively. Moreover, the figures for the recovery (%) in [5] and in [7] were 61% and 66%, respectively. The interferon capacity in test [8] was determined as 22.5 MIU/ml gel.

Values taken from US7745147 (VIRANATIVE, dated 2010).
